This passage reports abundance fitness results from the Human Domainome abundance scans (Beltran et al. 2025).

B1: POU domain, class 4, transcription factor 3, residues 185 to 256; numbered along this chain, Q15319 (parent)
chain: RELEAFAERFKQRRIKLGVTQADVGAALANLKIPGVGSLSQSTICRFESLTLSHNNMIALKPVLQAWLEEAE

± gives the uncertainty stated by the source.

The variants in this data set derive from B1. The experiment in a line: abundance fitness (aPCA) (normalised: wild type 0, dead -1); higher = more abundant; growth selection in yeast, the domain comes from the species named. The following applies: Homo sapiens.
Regarding A7K, the abundance fitness was -0.398 ± 0.2. In the case of A7M it was -0.784 ± 0.13; in that of A7R, -0.695 ± 0.032. With A7Y the figure was -0.725 ± 0.18. L3S: the abundance fitness is -0.359 ± 0.36. In the case of L3Y it was -0.192 ± 0.1; in that of L68Y, -0.287 ± 0.052; in that of L68I, -0.056 ± 0.069. Take L68D: the abundance fitness is -0.872 ± 0.078. With T43V the figure was -0.031 ± 0.045. With T43H, the abundance fitness was -0.296 ± 0.17. In the case of T43I it was -0.089 ± 0.41; in that of E4M, 0.01 ± 0.11; in that of E4W, -0.222 ± 0.043.

R13V: the abundance fitness was -0.018 ± 0.033.

Regarding R13Q, the abundance fitness was -0.069 ± 0.18. Regarding R13C, the abundance fitness is -0.265 ± 0.043. Turning to Q12E, the abundance fitness was 0.07 ± 0.31. Consider Q12A, for which the abundance fitness worked out at 0.006 ± 0.095.

With Q12T, the abundance fitness was -0.113 ± 0.056. Regarding Q12M, the abundance fitness was -0.034 ± 0.048. For S38L, the abundance fitness is -0.031 ± 0.036. As to G35S, the abundance fitness was -0.193 ± 0.057. In the case of G35H it was -0.038 ± 0.071; in that of G35Q, -0.076 ± 0.048; in that of G35K, -0.291 ± 0.051. For E70S, the abundance fitness was -0.034 ± 0.032. In the case of E70A it was -0.098 ± 0.042; in that of E70W, -0.29 ± 0.038; in that of A66D, -0.162 ± 0.24.

Regarding G37A, the abundance fitness was -0.127 ± 0.053.

In the case of G37H, the abundance fitness was 0.011 ± 0.26. With G37S the figure was -0.001 ± 0.082. In the case of G37L it was -0.172 ± 0.11; in that of R9I, -0.192 ± 0.084. In the case of R9G it was -0.198 ± 0.13; in that of R9W, -0.146 ± 0.1. For R9S, the abundance fitness amounted to 0.007 ± 0.083. Turning to R9N, the abundance fitness is -0.016 ± 0.1. In the case of F10M it was -0.881 ± 0.3; in that of I58H, -0.033 ± 0.1.

For the variant I58L, the abundance fitness was found to be 0.094 ± 0.065.

As for I58A, the abundance fitness was -0.262 ± 0.32. As for I58Y, the abundance fitness was -0.123 ± 0.082.

For I33Y, the abundance fitness was -0.105 ± 0.12. For the variant I33T, the abundance fitness is -0.197 ± 0.14. Consider Q65G, for which the abundance fitness was 0.011 ± 0.14. As to Q65K, the abundance fitness was -0.011 ± 0.41. P62W: the abundance fitness was -0.689 ± 0.047. With P62Q the figure was -0.393 ± 0.049.

With L31W, the abundance fitness was -0.008 ± 0.2. Take S42N: the abundance fitness came to 0.06 ± 0.4. In the case of L39P, the abundance fitness worked out at 0.054 ± 0.3. In the case of L39S it was -0.109 ± 0.23; in that of L39F, -0.687 ± 0.5.

For the variant A27E, the abundance fitness is -0.123 ± 0.081. In the case of A27M it was -0.176 ± 0.11. In the case of A27L it was -0.233 ± 0.064.

For the variant V19N, the abundance fitness is -0.154 ± 0.077. In the case of V19L it was 0.011 ± 0.03; in that of V19S, -0.14 ± 0.029. In the case of V19F it was 0.03 ± 0.048; in that of R14Q, -0.45 ± 0.13; in that of R14T, -1.15 ± 0.18. Turning to R14E, the abundance fitness is -0.95 ± 0.34.

In the case of K16M, the abundance fitness stood at 0.008 ± 0.039. For the variant S53Q, the abundance fitness is -0.403 ± 0.14. Regarding S53P, the abundance fitness turned out to be 0.042 ± 0.09. For the variant A29E, the abundance fitness was 0.006 ± 0.18. Consider A29M, for which the abundance fitness was -0.119 ± 0.14. For the variant A29G, the abundance fitness is -0.022 ± 0.077. In the case of S40F it was -0.468 ± 0.11; in that of S40I, -0.664 ± 0.38. With S40R the figure was -0.175 ± 0.069.

Take R46F: the abundance fitness was -0.519 ± 0.13. In the case of R46W it was -0.334 ± 0.14; in that of R46E, 0.025 ± 0.17; in that of R46L, -0.184 ± 0.056. In the case of R46D it was 0.096 ± 0.13; in that of R46N, 0.094 ± 0.081. With V36Q the figure was -0.261 ± 0.16; with V36N, -0.234 ± 0.32. In the case of V36W, the abundance fitness was -0.091 ± 0.11. In the case of V36F it was -0.043 ± 0.071. With L28D the figure was -0.716 ± 0.16; with L28S, -0.688 ± 0.12. In the case of L28K it was -0.915 ± 0.19; in that of A5R, -0.121 ± 0.19; in that of A5Q, 0.08 ± 0.15.

Take V24H: the abundance fitness is -0.917 ± 0.11. Regarding K32F, the abundance fitness was -0.174 ± 0.037.

Consider K32Y, for which the abundance fitness was -0.12 ± 0.051. As for K32V, the abundance fitness is -0.009 ± 0.031. With K32R the figure was -0.039 ± 0.035; with K32Q, -0.175 ± 0.065; with A71V, -0.073 ± 0.036.

Regarding A71T, the abundance fitness was -0.085 ± 0.062. With A71D the figure was -0.574 ± 0.12; with E2I, -0.664 ± 0.37. With E2L the figure was -0.421 ± 0.04; with K61I, -0.128 ± 0.069.

On to K11V, for which the abundance fitness is -0.186 ± 0.12. For K11Y, the abundance fitness was -0.474 ± 0.077. K11P: the abundance fitness is -0.751 ± 0.37. With K11M the figure was -0.125 ± 0.049; with R1C, -0.229 ± 0.065. With R1A the figure was -0.282 ± 0.14; with R1D, -0.419 ± 0.17. In the case of R1W, the abundance fitness is -0.164 ± 0.052.

Turning to G18S, the abundance fitness was -0.435 ± 0.08. In the case of G18Y it was -0.928 ± 0.29. In the case of G18V it was -0.997 ± 0.15; in that of N30F, -0.276 ± 0.1; in that of N30D, -0.184 ± 0.5.

Regarding N30E, the abundance fitness was -0.083 ± 0.091. As to N30I, the abundance fitness is -0.361 ± 0.15. With E69T the figure was -0.075 ± 0.04; with Q21E, 0.081 ± 0.11. As for Q21W, the abundance fitness was -0.331 ± 0.094.

As for Q21C, the abundance fitness is -0.243 ± 0.34. In the case of Q21F, the abundance fitness was -0.413 ± 0.11. In the case of Q21S it was -0.289 ± 0.074.

A26L: the abundance fitness is -0.027 ± 0.025.

On to A26K, for which the abundance fitness is 0.04 ± 0.047. In the case of A26Y it was -0.144 ± 0.044; in that of E8M, -0.003 ± 0.059.

For the variant E8I, the abundance fitness was 0 ± 0.12.

For the variant E8Q, the abundance fitness was 0.073 ± 0.091. For P34T, the abundance fitness is -0.058 ± 0.094. As for P34Y, the abundance fitness was -0.379 ± 0.14. As to P34L, the abundance fitness was -0.386 ± 0.067. For T51Q, the abundance fitness was -0.074 ± 0.11. For A22V, the abundance fitness is -0.298 ± 0.05. In the case of A22G it was -0.055 ± 0.036; in that of A22W, -0.329 ± 0.064.

Consider A22L, for which the abundance fitness was -0.265 ± 0.033. In the case of W67Y it was -0.09 ± 0.087; in that of W67Q, -1.02 ± 0.24. For the variant W67F, the abundance fitness is -0.06 ± 0.065. In the case of L64Y it was -0.322 ± 0.069. In the case of L64M it was -0.17 ± 0.034; in that of L64R, -0.818 ± 0.055; in that of L64D, -0.737 ± 0.084. In the case of C45L it was -0.06 ± 0.038.

Regarding C45K, the abundance fitness was found to be 0.109 ± 0.17. As for C45I, the abundance fitness turned out to be 0.104 ± 0.069. With T20S the figure was -0.095 ± 0.073; with T20I, -0.623 ± 0.37; with T20G, -0.25 ± 0.03. In the case of N56C it was -0.036 ± 0.25; in that of N56G, -0.035 ± 0.41; in that of I15V, -0.098 ± 0.055. For the variant I15T, the abundance fitness is 0.02 ± 0.1.

Regarding I15D, the abundance fitness was -0.229 ± 0.071. Consider I15E, for which the abundance fitness was -0.067 ± 0.079.

G25H: the abundance fitness is -0.269 ± 0.21. On to G25V, for which the abundance fitness came out at 0.05 ± 0.069. In the case of G25L, the abundance fitness is -0.159 ± 0.097.

In the case of S49F, the abundance fitness was -0.515 ± 0.11. With S49R the figure was -0.136 ± 0.066; with V63F, -0.181 ± 0.15. In the case of V63T it was -0.254 ± 0.11.

Consider V63I, for which the abundance fitness came to 0.055 ± 0.051. V63K: the abundance fitness was -0.35 ± 0.34. With F47V the figure was -0.718 ± 0.1; with L60G, -0.638 ± 0.5. On to L60Q, for which the abundance fitness is -0.376 ± 0.24.
